B1: Oxysterol-binding protein-related protein 1 (Homo sapiens), Q9BXW6 (parent)
chain: MNTEAEQQLLHHARNGNAEEVRQLLETMARNEVIADINCKGRSKSNLGWTPLHLACYFGHRQVVQDLLKAGAEVNVLNDMGDTPLHRAAFTGRKELVMLLLEYNADTTIVNGSGQTAKEVTHAEEIRSMLEAVERTQQRKLEELLLAAAREGKTTELTALLNRPNPPDVNCSDQLGNTPLHCAAYRAHKQCALKLLRSGADPNLKNKNDQKPLDLAQGAEMKHILVGNKVIYKALKRYEGPLWKSSRFFGWRLFWVVLEHGVLSWYRKQPDAVHNIYRQGCKHLTQAVCTVKSTDSCLFFIKCFDDTIHGFRVPKNSLQQSREDWLEAIEEHSAYSTHYCSQDQLTDEEEEDTVSAADLKKSLEKAQSCQQRLDREISNFLKMIKECDMAKEMLPSFLQKVEVVSEASRETCVALTDCLNLFTKQEGVRNFKLEQEQEKNKILSEALETLATEHHELEQSLVKGSPPASILSEDEFYDALSDSESERSLSRLEAVTARSFEEEGEHLGSRKHRMSEEKDCGGGDALSNGIKKHRTSLPSPMFSRNDFSIWSILRKCIGMELSKITMPVIFNEPLSFLQRLTEYMEHTYLIHKASSLSDPVERMQCVAAFAVSAVASQWERTGKPFNPLLGETYELVRDDLGFRLISEQVSHHPPISAFHAEGLNNDFIFHGSIYPKLKFWGKSVEAEPKGTITLELLEHNEAYTWTNPTCCVHNIIVGKLWIEQYGNVEIINHKTGDKCVLNFKPCGLFGKELHKVEGYIQDKSKKKLCALYGKWTECLYSVDPATFDAYKKNDKKNTEEKKNSKQMSTSEELDEMPVPDSESVFIIPGSVLLWRIAPRPPNSAQMYNFTSFAMVLNEVDKDMESVIPKTDCRLRPDIRAMENGEIDQASEEKKRLEEKQRAARKNRSKSEEDWKTRWFHQGPNPYNGAQDWIYSGSYWDRNYFNLPDIY
partner: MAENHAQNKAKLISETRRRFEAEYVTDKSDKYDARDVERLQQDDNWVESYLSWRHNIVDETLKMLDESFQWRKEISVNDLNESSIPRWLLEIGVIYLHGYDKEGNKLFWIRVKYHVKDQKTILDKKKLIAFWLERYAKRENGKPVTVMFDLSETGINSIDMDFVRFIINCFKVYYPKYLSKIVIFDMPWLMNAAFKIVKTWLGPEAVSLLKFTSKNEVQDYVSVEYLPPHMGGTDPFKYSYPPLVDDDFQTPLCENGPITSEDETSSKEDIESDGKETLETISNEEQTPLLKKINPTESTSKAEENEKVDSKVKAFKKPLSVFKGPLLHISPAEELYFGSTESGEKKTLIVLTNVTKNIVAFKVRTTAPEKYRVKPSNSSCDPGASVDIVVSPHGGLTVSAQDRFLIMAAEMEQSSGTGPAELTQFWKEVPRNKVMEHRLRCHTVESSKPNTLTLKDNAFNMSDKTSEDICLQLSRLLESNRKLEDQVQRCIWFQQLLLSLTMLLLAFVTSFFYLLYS
B2: Ceramide transfer protein (Homo sapiens), Q9Y5P4 (parent)
chain: MSDNQSWNSSGSEEDPETESGPPVERCGVLSKWTNYIHGWQDRWVVLKNNALSYYKSEDETEYGCRGSICLSKAVITPHDFDECRFDISVNDSVWYLRAQDPDHRQQWIDAIEQHKTESGYGSESSLRRHGSMVSLVSGASGYSATSTSSFKKGHSLREKLAEMETFRDILCRQVDTLQKYFDACADAVSKDELQRDKVVEDDEDDFPTTRSDGDFLHSTNGNKEKLFPHVTPKGINGIDFKGEAITFKATTAGILATLSHCIELMVKREDSWQKRLDKETEKKRRTEEAYKNAMTELKKKSHFGGPDYEEGPNSLINEEEFFDAVEAALDRQDKIEEQSQSEKVRLHWPTSLPSGDAFSSVGTHRFVQKPYSRSSSMSSIDLVSASDDVHRFSSQVEEMVQNHMTYSLQDVGGDANWQLVVEEGEMKVYRREVEENGIVLDPLKATHAVKGVTGHEVCNYFWNVDVRNDWETTIENFHVVETLADNAIIIYQTHKRVWPASQRDVLYLSVIRKIPALTENDPETWIVCNFSVDHDSAPLNNRCVRAKINVAMICQTLVSPPEGNQEISRDNILCKITYVANVNPGGWAPASVLRAVAKREYPKFLKRFTSYVQEKTAGKPILF
partner: B1 partner
B3: STARD3 N-terminal-like protein (Homo sapiens), O95772 (parent)
chain: MNHLPEDMENALTGSQSSHASLRNIHSINPTQLMARIESYEGREKKGISDVRRTFCLFVTFDLLFVTLLWIIELNVNGGIENTLEKEVMQYDYYSSYFDIFLLAVFRFKVLILAYAVCRLRHWWAIALTTAVTSAFLLAKVILSKLFSQGAFGYVLPIISFILAWIETWFLDFKVLPQEAEEENRLLIVQDASERAALIPGGLSDGQFYSPPESEAGSEEAEEKQDSEKPLLEL
partner: B1 partner
B4: Motile sperm domain-containing protein 2 (Homo sapiens), Q8NHP6 (parent)
chain: B1 partner
partner: B2 chain
B5: Motile sperm domain-containing protein 2 (Homo sapiens), Q8NHP6 (parent)
chain: B1 partner
partner: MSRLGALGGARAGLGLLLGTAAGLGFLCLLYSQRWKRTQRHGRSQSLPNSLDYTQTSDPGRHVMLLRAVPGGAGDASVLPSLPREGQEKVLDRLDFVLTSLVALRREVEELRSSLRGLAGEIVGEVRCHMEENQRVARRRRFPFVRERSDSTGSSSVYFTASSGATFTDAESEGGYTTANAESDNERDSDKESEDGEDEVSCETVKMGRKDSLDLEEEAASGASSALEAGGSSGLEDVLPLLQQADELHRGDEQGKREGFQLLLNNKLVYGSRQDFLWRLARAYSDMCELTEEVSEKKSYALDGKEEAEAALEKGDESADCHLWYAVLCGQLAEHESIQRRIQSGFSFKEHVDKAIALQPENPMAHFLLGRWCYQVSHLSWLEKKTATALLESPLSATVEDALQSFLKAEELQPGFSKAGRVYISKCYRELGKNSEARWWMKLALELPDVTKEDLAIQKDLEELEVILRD

In one test the parent is B1. The following applies: with mspd2_human MOSPD2, Q8NHP6.
As for F476A;Y477A, the “effect of a mutation on the interaction” value is recorded as “disrupting interaction strength”.

In a further test the parent is B2. The settings on record: with mspd2_human MOSPD2, Q8NHP6.
Regarding D324A, the “effect of a mutation on the interaction” value was “disrupting interaction strength”.

Variants of B3 are the subject of another test. The following applies: with mspd2_human MOSPD2, Q8NHP6.
Take F208A;Y209A: the “effect of a mutation on the interaction” value was “disrupting interaction strength”.

Another test covers variants of B4. The following applies: with cert_human CERT1, Q9Y5P4.
Regarding R404D;L406D, the “effect of a mutation on the interaction” value is on record as “disrupting interaction strength”.

In a further test the parent is B5. The following applies: with rmd3_human RMDN3, Q96TC7.
On to R404D;L406D, for which the “effect of a mutation on the interaction” value is “disrupting interaction strength”.

These data come from IntAct's records for PubMed 29858488.
